Results: patent US20160108128A1 (CANCER RESEARCH TECHNOLOGY, published 2016)

Key:
[1] = target: T1, human Jagged 1, full length, on cells (human, UniProt P78504 34-1218); test: FACS competition, HEK293-J1 cells, against biotinylated J1-156A 1.0 µg/ml
T1 construct: whole, on cells; the cell is named under assay; also called hJ1; J1

[2] = target: T1, human Jagged 1, full length, on cells; test: FACS competition, HEK293-J1 cells, against biotinylated J1-187B 1.0 µg/ml
[3] = target: T2, J1 DSL-EGF3 soluble recombinant protein (human Jagged 1 amino acids 185-335) (human, UniProt P78504 185-335); test: SPR (Biacore), mAb immobilised, J1 protein in flow
T2 construct: biotinylated in the CD46 ELISA; also called J1-DE3; DSL+EGF1-3
T2 sequence (P78504 185-335, form in doubt): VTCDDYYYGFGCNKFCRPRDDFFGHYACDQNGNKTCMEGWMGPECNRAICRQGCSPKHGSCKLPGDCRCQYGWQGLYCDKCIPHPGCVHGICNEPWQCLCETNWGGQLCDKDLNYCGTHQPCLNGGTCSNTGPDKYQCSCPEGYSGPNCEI

[4] = target: T3, J1-NE12 (human Jagged 1, entire N-terminus to EGF12) (human, UniProt P78504 32-703); test: SPR (Biacore), mAb immobilised, J1 protein in flow
T3 construct: domain: entire N-terminus to EGF12; eukaryotically expressed soluble form used in SPR

[5] = target: T4, J1-NE3 (human Jagged 1, entire N-terminus until the third EGF domain) (human, UniProt P78504 32-335, limits assumed); test: SPR (Biacore), mAb immobilised, J1 protein in flow
T4 construct: domain: entire N-terminus until the third EGF domain; eukaryotically expressed soluble form used in SPR

[6] = target: T2, J1 DSL-EGF3 soluble recombinant protein …; test: affinity to the immunogen J1-DE3; method not stated
[7] = target: T1, human Jagged 1, full length, on cells; test: FACS competition, HEK293-J1 cells, against biotinylated J1-65D 1.0 µg/ml
[8] = target: T5, murine Jagged 1, full length, on B16F10 cells (mouse, UniProt Q9QXX0 34-1218); test: FACS, B16F10-mJAG1 cells, anti-human-APC
T5 construct: whole, on cells; GFP co-expressed; also called mJ1; B16F10-mJAG1
T5 sequence (Q9QXX0 34-1218, one chain of several): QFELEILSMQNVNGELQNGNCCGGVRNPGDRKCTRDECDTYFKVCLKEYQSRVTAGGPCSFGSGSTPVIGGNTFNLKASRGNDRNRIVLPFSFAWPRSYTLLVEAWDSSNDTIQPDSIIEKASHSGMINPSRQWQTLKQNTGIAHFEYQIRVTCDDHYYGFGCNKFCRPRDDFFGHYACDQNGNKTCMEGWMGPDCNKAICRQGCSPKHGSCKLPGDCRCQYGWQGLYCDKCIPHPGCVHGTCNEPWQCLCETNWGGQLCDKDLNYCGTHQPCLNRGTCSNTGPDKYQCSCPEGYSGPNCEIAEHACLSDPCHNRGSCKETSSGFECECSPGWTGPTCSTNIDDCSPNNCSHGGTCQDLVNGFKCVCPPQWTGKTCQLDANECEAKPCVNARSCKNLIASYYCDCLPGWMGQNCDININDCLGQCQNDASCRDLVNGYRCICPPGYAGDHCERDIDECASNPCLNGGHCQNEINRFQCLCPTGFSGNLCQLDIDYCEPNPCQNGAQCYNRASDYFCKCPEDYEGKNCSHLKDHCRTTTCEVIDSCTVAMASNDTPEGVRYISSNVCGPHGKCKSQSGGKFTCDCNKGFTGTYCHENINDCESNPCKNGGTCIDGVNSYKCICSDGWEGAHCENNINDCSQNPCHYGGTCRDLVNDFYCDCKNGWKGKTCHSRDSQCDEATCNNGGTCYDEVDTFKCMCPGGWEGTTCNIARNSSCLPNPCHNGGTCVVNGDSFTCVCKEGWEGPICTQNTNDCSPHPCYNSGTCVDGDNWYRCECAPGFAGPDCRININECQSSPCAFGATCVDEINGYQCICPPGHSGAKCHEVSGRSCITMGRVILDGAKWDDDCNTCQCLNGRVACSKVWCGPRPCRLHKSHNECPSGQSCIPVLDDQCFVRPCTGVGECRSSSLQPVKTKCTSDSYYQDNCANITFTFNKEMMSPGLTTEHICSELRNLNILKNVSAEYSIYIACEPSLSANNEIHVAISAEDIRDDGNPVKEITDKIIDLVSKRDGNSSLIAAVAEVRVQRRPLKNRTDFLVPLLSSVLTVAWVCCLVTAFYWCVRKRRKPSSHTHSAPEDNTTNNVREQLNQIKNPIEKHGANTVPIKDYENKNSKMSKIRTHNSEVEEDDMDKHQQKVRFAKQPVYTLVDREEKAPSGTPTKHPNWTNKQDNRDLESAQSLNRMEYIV
Method: FIG. 19. […] Samples were analysed by FACS and the mean fluorescence intensities (MFI) were plotted.
(§1) HEK293 cells transfected with human J1, J2 or FLAG-EGFP-tagged DSL-EGF3 constructs, B16F10 cells transfected with human DLL4 or mouse J1, and human cancer cell lines, were stained with either purified anti-J1 antibodies at 10 μg/ml diluted in FACS wash buffer (2% FBS in PBS+0.1% sodium azide) or neat hybridoma supernatants followed by a allophycocyanin (APC)-conjugated secondary antibody at 1:200 dilution: for murine primary antibodies, used goat anti-mouse-APC (eBioscience); for humanised and chimeric antibodies used goat anti-human IgG (H+L) secondary antibody (Jackson ImmunoResearch Laboratories). After washing, samples were fixed with 1% paraformaldehyde (in PBS) and acquired with a FACSCalibur. FACS data were analysed with FlowJo software (TreeStar Inc.).

[9] = target: T6, human Jagged 2, full length, on HEK293 cells (human, UniProt Q9Y219 24-1238); test: FACS, 293-JAG2 cells, anti-human-APC
T6 construct: whole, on cells; also called J2; hJ2
T6 sequence (Q9Y219 24-1238): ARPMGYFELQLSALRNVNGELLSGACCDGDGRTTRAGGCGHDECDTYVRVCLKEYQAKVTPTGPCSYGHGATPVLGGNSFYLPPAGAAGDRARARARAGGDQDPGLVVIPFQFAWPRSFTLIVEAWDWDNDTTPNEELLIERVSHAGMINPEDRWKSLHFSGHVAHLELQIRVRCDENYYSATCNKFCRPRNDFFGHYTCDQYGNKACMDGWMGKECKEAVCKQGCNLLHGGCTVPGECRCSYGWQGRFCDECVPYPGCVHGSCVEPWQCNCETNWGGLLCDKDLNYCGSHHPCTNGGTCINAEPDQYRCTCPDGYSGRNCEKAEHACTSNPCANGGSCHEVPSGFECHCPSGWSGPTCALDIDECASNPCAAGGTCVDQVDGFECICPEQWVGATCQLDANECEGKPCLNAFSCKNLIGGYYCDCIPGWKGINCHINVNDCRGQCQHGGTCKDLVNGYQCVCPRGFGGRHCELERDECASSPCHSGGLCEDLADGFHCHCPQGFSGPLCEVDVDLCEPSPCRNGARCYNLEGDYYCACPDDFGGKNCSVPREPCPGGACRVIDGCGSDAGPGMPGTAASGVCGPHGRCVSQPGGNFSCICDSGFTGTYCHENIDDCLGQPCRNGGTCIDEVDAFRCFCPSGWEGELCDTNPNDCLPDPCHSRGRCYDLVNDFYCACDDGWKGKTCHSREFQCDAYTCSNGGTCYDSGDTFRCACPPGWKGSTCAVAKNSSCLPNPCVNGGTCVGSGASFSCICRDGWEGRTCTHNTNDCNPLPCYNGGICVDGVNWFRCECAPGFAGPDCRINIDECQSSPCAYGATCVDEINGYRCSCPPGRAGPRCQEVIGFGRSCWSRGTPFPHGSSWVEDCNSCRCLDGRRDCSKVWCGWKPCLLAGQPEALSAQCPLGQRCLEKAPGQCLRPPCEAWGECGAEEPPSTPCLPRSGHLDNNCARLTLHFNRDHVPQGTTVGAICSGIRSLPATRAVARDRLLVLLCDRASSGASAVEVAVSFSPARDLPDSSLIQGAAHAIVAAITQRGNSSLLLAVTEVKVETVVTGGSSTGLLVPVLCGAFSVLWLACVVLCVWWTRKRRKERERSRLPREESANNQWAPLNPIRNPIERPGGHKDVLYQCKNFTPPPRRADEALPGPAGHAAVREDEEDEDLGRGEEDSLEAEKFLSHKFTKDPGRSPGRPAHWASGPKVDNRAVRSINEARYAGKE
Method: FIG. 18. […] Samples were analysed by FACS and the mean fluorescence intensities (MFI) were plotted. […] With the exception of J1-65D variants 13-16, all the remaining antibodies effectively bound the human J1 protein.
as §1

T1 sequence (P78504 34-1218): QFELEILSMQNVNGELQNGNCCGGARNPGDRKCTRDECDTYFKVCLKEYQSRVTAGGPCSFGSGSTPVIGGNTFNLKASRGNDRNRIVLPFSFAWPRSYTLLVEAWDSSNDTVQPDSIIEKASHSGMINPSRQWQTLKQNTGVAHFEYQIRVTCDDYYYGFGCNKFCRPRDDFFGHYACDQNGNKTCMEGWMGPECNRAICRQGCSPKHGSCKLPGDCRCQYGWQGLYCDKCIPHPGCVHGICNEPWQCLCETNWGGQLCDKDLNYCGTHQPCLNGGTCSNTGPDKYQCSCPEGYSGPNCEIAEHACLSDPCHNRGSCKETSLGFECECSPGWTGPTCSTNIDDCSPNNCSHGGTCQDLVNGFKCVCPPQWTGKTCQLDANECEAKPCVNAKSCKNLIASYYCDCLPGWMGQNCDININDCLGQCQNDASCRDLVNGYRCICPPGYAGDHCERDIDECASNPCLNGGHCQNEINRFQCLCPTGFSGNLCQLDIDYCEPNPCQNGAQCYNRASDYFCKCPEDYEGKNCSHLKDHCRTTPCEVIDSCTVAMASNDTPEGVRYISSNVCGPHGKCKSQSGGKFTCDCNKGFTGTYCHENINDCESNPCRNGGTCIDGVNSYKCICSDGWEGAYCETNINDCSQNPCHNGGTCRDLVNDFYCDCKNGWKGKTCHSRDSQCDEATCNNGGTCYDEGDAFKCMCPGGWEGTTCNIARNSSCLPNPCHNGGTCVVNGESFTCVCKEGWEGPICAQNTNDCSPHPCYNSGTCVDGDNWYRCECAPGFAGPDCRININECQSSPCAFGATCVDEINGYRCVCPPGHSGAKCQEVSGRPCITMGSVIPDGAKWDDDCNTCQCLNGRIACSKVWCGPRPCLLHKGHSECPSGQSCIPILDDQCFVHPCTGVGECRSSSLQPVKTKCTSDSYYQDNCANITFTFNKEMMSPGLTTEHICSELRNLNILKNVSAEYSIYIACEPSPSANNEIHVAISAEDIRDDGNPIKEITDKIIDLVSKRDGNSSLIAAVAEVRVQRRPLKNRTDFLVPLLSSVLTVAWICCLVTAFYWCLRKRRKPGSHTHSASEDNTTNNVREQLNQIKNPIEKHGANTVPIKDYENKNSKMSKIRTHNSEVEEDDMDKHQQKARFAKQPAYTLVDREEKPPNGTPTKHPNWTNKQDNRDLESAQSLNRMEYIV

B1: J1-65D (antibody, V domains shown)
VH: QVQLQQPGAELVRPGASVKLSCKALGYTFTDYEMHWVKETPVHGLEWIGAIQPGGGGTAYNQKFKGKATLTADKSSSTAYMELSSLTSEDSAVYYCTRRGYDDYPFAYWGQGTLVTVSS
VL: DIQLTQSPASLSASVGETVTITCRASGNIHNYLAWYQQKQGKSPQLLVYNAKTLADDIPSRFSGSGSGTQYSLKINSLQPEDFGSYYCQHFWSAPWTFGGGTKLEIK
With B1 the “IC50 (read off the curve)” value [1] was ~0.6 µg/mL, the “IC50 (read off the curve)” value [2] was ~0.5 µg/mL and the Kd [3] was 9.7 nM. It also gave a Kd [4] of 3 nM, a Kd [5] of 3.3 nM and a Kd [6] of 0.13 nM. The “IC50 (read off the curve)” value [7] was ~1 µg/mL.

B2: J1-65D variant 11 (antibody, human IgG1, V domains shown)
VH: QVQLVQSGAEVKKPGSSVKVSCKASGYTFTDYEMHWVRQAPGQGLEWMGAIQPGGGGTAYAQKFQGRVTLTADKSTSTAYMELSSLRSEDTAVYYCTRRGYDDYPFAYWGQGTLVTVSS
VL: DIQMTQSPSSLSASVGDRVTITCRASGNIHNYLAWYQQKPGKAPKLLIYNAKTLADAVPSRFSGSGSGTDYTLTISSLQPEDFATYYCQHFWSAPWTFGQGTKLEIKR
notes: human IgG1; also called J1-65DV11; V11
B2 was tested, and the binding result [8] was “no binding (tested: 10 ug/ml)”, the Kd [6] was 0.243 nM and the binding result [9] was “no binding (tested: 10 ug/ml)”.

B3: J1-65D variant 12 (antibody, human IgG1, V domains shown)
VH: QVQLVQSGAEVKKPGSSVKVSCKASGYTFTDYEMHWVRQAPGQGLEWMGAIQPGGGGTAYAQKFQGRVTITADKSTSTAYMELSSLRSEDTAVYYCTRRGYDDYPFAYWGQGTLVTVSS
VL: DIQMTQSPSSLSASVGDRVTITCRASGNIHNYLAWYQQKPGKAPKLLIYNAKTLADAVPSRFSGSGSGTDYTLTISSLQPEDFATYYCQHFWSAPWTFGQGTKLEIKR
notes: human IgG1; also called J1-65DV12; V12
In the case of B3, the binding result [8] is reported as “no binding (tested: 10 ug/ml)”, the Kd [6] is reported as 0.0806 nM and the binding result [9] is reported as “no binding (tested: 10 ug/ml)”.

B4: J1-183D (antibody, V domains shown)
VH: QVQLQQPGTELVRPGVSVKISCKVSGYAFTDYAIHWIMQSHAKSLEWIGIINTYYGDSKYNQKFKDKATMTVDKSSNTAYMELARLTSEDSAIYYCARGYDGFAYWGQGTLVTVSS
VL: DIQLTQSPASLSASVGETVTFTCRTSENIYSYLTWYQQKQGKSPQLLVYNAKILAAGVPSRFSGYGSGTQFSLKINSLQPEDFGTYYCQHHYDIPWTFGGGTKLEIK
B4 showed a Kd [3] of 4.9 nM, a Kd [4] of 4.4 nM and a Kd [5] of 5.2 nM. The Kd [6] was 0.58 nM.
